# Measured values reported in patent publication US20200317768A1 (published 2020).
# T1: cynomolgus monkey FcγRIIa1 extracellular domain, C-terminal His-tag (cynomolgus monkey)
# T1 construct: also called cyno FcγRIIa1; cynoFcgRIIa1; not shown: His-tag added to C-terminus
# T1 chain: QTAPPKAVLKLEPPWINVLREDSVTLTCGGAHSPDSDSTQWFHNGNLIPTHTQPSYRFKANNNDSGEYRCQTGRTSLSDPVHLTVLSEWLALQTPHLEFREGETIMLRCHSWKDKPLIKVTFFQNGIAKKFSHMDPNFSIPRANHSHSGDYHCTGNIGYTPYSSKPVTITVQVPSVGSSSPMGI
# T2: cynomolgus monkey FcγRIIa2 extracellular domain, C-terminal His-tag (cynomolgus monkey)
# T2 construct: also called cyno FcγRIIa2; cynoFcgRIIa2; not shown: His-tag added to C-terminus
# T2 chain: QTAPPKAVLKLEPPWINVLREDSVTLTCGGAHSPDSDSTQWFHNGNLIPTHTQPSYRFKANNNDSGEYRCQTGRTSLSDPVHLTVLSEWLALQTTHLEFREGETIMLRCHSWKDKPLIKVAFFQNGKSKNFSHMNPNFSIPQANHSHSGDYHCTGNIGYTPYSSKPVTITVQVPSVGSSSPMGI
# T3: cynomolgus monkey FcγRIIa3 extracellular domain, C-terminal His-tag (cynomolgus monkey)
# T3 construct: also called cyno FcγRIIa3; cynoFcgRIIa3; not shown: His-tag added to C-terminus
# T3 chain: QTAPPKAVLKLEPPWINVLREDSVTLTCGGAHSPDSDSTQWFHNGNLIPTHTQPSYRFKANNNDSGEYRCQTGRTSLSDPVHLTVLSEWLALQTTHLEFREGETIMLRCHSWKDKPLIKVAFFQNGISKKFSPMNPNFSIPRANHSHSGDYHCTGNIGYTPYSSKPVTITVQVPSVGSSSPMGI
# T4: cynomolgus monkey FcγRIIb extracellular domain, C-terminal His-tag (cynomolgus monkey)
# T4 construct: also called cyno FcγRIIb; cynoFcγRIIb; not shown: His-tag added to C-terminus
# T4 chain: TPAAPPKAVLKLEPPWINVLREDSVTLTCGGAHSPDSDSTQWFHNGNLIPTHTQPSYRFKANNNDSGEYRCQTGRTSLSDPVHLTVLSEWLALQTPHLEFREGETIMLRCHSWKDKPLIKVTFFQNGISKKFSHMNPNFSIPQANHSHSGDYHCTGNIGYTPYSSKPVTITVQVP
# T5: human FcγRIIaR extracellular domain, C-terminal His-tag (human, UniProt P12318 34-217)
# T5 construct: also called human FcγRIIa (type R); FcgRIIaR; not shown: His-tag added to C-terminus
# T5 chain: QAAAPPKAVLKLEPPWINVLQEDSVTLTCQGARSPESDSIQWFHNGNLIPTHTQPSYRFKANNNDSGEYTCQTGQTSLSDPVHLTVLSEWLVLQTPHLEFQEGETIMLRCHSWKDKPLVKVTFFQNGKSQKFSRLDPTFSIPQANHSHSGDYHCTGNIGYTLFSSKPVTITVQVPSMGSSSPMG
# T6: human FcγRIIb extracellular domain, C-terminal His-tag (human, UniProt P31994 43-217)
# T6 construct: also called FcgRIIb (human); not shown: His-tag added to C-terminus
# T6 sequence: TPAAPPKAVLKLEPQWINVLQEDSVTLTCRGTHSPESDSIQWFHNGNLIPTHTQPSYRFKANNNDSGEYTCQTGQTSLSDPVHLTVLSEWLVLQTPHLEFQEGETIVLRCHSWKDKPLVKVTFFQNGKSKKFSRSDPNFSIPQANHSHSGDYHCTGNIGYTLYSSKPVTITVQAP
# Experiments:
# Assay in all cases: SPR (Biacore), antibody captured, FcgR analyte, 25 C
# [1] = molecular target: T1, cynomolgus monkey FcγRIIa1 …
# Protocol: (§1) The kinetic analysis of interactions between these antibodies and FcγR was carried out using BIACORE® T200 or BIACORE® 4000 (GE Healthcare). HBS-EP+ (GE Healthcare) was used as the running buffer, and the measurement temperature was set to 25° C. A chip produced by immobilizing Protein A. Protein A/G or mouse anti-human IgG kappa light chain (BD Biosciences) onto a Series S Sensor Chip CM4 or CM5 (GE Healthcare) by the amine-coupling method was used. […] After the measurement, the antibody captured on the chip was washed off by allowing reaction with 10 mM glycine-HCl, pH1.5 and 25 mM NaOH so that the chip was regenerated and used repeatedly. The sensorgrams obtained as measurement results were analyzed by the 1:1 Langmuir binding model using the BIACORE® Evaluation Software to calculate the binding rate constant ka (L/mol/s) and dissociation rate constant kd (l/s), and the dissociation constant KD (mol/L) was calculated from these values. […] Regarding such interactions, KD values were calculated using the following 1:1 binding model described in BIACORE® T100 Software Handbook BR1006-48 Edition AE.
# (§2) The behavior of interacting molecules according to the 1:1 binding model on BIACORE® can be described by Equation 1: Req=C·R max/(KD+C)+RI, wherein, Req is a plot of steady-state binding levels to analyte concentration. C is concentration, RI is bulk refractive index contribution in the sample, and Rmax is analyte binding capacity of the surface. When this equation is rearranged, KD can be expressed as Equation 2: KD=C·Rmax/(Req−RI)−C. KD can be calculated by substituting the values of Rmax, RI, and C into Equation 1 or Equation 2. From the current measurement conditions, RI=0, C=2 μmol/L can be used.
# [2] = molecular target: T2, cynomolgus monkey FcγRIIa2 …
# Protocol: as §1, §2
# [3] = molecular target: T3, cynomolgus monkey FcγRIIa3 …
# Protocol: as §1, §2
# [4] = molecular target: T4, cynomolgus monkey FcγRIIb extracellular …
# Protocol: as §1, §2
# [5] = molecular target: T7, cynomolgus monkey FcγRIIIaS extracellular domain, C-terminal His-tag (cynomolgus monkey, UniProt A3RFZ7 21-206 (rhesus entry))
# T7 construct: also called cyno FcγRIIIaS; cynoFcγRIIIaS; not shown: His-tag added to C-terminus
# Protocol: as §1, §2
# [6] = molecular target: T5, human FcγRIIaR extracellular domain, …
# Protocol: as §1, §2
# [7] = molecular target: T6, human FcγRIIb extracellular domain, …
# Protocol: as §1, §2
# [8] = molecular target: T8, human FcγRIIIaV extracellular domain, C-terminal His-tag (human, UniProt P08637 17-208)
# T8 construct: also called FcgRIIIaV; not shown: His-tag added to C-terminus
# Protocol: as §1, §2
# T8 sequence (P08637 17-208 F176V): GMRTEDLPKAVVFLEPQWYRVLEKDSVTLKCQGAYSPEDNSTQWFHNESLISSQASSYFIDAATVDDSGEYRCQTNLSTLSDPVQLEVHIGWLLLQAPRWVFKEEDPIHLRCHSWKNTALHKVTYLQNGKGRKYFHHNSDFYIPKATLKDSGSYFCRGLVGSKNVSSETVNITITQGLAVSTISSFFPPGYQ
# T7 sequence (A3RFZ7 21-206): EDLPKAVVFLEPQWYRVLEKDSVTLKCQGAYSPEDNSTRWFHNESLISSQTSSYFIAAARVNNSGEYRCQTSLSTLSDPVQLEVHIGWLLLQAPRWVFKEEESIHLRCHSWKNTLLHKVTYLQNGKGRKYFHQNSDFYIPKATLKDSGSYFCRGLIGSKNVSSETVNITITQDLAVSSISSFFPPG
Kd [1],Kd [2],Kd [3],Kd [4],Kd [5],Kd [6],Kd [7],Kd [8],Binder
3200 nM,5100 nM,17000 nM,1800 nM,360 nM,1100 nM,4600 nM,810 nM,"MS_M103205H795-SG1/M103202L889-SK1 (antibody, human IgG1, kappa, Parent antibody; also called MS1032LO06-SG1) heavy: not shown light: DIVMTQSPATLSLSPGERATLSCTSSQSVYHANWLSWFQQKPGQPPKLLIYWASTLAYGVPSRFSGSGSGTDFTLTISSLQPEDAATYYCAGGYGGGRYAFGQGTKVEIKRTVAAPSVFIFPPSDEQLKSGTASVVCLLNNFYPREAKVQWKVDNALQSGNSQESVTEQDSKDSTYSLSSTLTLSKADYEKHKVYACEVTHQGLSSPVTKSFNRGEC"
1500 nM,2200 nM,1900 nM,470 nM,4200 nM,81 nM,150 nM,–,"M103205H795-MY229/M103202L889-SK1 (antibody, human IgG1, kappa) heavy: QVTLKESGPVLVKPTETLTLTCTVSGIDLSHDDISWVRQAPGKGLEWVGIISYAGSTYYASWAKGRLTISKDTSKNQVVLTMTNMDPVDTATYYCARGVPAYSHGGDLWGQGTLVTVSSASTKGPSVFPLAPSSKSTSGGTAALGCLVKDYFPEPVTVSWNSGALTSGVHTFPAVLQSSGLYSLSSVVTVPSSSLGTQTYICNVNHKPSNTKVDKKVEPKSCDKTHTCPPCPAPELLGYPSVFLFPPKPKDTLMISRTPEVTCVVVDVSDEDPEVKFNWYVDGVEVHNAKTKPREELYNSTYRVVSVLTVLHQDWLNGKEYKCKVSNKALPKPIEKTISKAKGQPREPQVYTLPPSREEMTKNQVSLTCLVKGFYPSDIAVEWESNGQPENNYKTTPKVLDSDGSFFLYSKLTVDKSRWQQGNVFSCSVMHEALHNHYTQKSLSLSP light: DIVMTQSPATLSLSPGERATLSCTSSQSVYHANWLSWFQQKPGQPPKLLIYWASTLAYGVPSRFSGSGSGTDFTLTISSLQPEDAATYYCAGGYGGGRYAFGQGTKVEIKRTVAAPSVFIFPPSDEQLKSGTASVVCLLNNFYPREAKVQWKVDNALQSGNSQESVTEQDSKDSTYSLSSTLTLSKADYEKHKVYACEVTHQGLSSPVTKSFNRGEC"
1100 nM,1300 nM,2900 nM,460 nM,280 nM,83 nM,680 nM,1500 nM,"M103205H795-MY143/M103202L889-SK1 (antibody, human IgG1, kappa) heavy: QVTLKESGPVLVKPTETLTLTCTVSGIDLSHDDISWVRQAPGKGLEWVGIISYAGSTYYASWAKGRLTISKDTSKNQVVLTMTNMDPVDTATYYCARGVPAYSHGGDLWGQGTLVTVSSASTKGPSVFPLAPSSKSTSGGTAALGCLVKDYFPEPVTVSWNSGALTSGVHTFPAVLQSSGLYSLSSVVTVPSSSLGTQTYICNVNHKPSNTKVDKKVEPKSCDKTHTCPPCPAPELLSGPSVFLFPPKPKDTLMISRTPEVTCVVVDVSEEDPEVKFNWYVDGVEVHNAKTKPREEQYNSTYRVVSVLTVLHQDWLNGKEYKCKVSNKALPAPIEKTISKAKGQPREPQVYTLPPSREEMTKNQVSLTCLVKGFYPSDIAVEWESNGQPENNYKTTPMVLDSDGSFFLYSKLTVDKSRWQQGNVFSCSVMHEALHNHYTQKSLSLSP light: DIVMTQSPATLSLSPGERATLSCTSSQSVYHANWLSWFQQKPGQPPKLLIYWASTLAYGVPSRFSGSGSGTDFTLTISSLQPEDAATYYCAGGYGGGRYAFGQGTKVEIKRTVAAPSVFIFPPSDEQLKSGTASVVCLLNNFYPREAKVQWKVDNALQSGNSQESVTEQDSKDSTYSLSSTLTLSKADYEKHKVYACEVTHQGLSSPVTKSFNRGEC"
4100 nM,4900 nM,25000 nM,1800 nM,140 nM,170 nM,950 nM,530 nM,"M103205H795-MY142/M103202L889-SK1 (antibody, human IgG1, kappa) heavy: QVTLKESGPVLVKPTETLTLTCTVSGIDLSHDDISWVRQAPGKGLEWVGIISYAGSTYYASWAKGRLTISKDTSKNQVVLTMTNMDPVDTATYYCARGVPAYSHGGDLWGQGTLVTVSSASTKGPSVFPLAPSSKSTSGGTAALGCLVKDYFPEPVTVSWNSGALTSGVHTFPAVLQSSGLYSLSSVVTVPSSSLGTQTYICNVNHKPSNTKVDKKVEPKSCDKTHTCPPCPAPELLEGPSVFLFPPKPKDTLMISRTPEVTCVVVDVSEEDPEVKFNWYVDGVEVHNAKTKPREEQYNSTYRVVSVLTVLHQDWLNGKEYKCKVSNKALPAPIEKTISKAKGQPREPQVYTLPPSREEMTKNQVSLTCLVKGFYPSDIAVEWESNGQPENNYKTTPMVLDSDGSFFLYSKLTVDKSRWQQGNVFSCSVMHEALHNHYTQKSLSLSP light: DIVMTQSPATLSLSPGERATLSCTSSQSVYHANWLSWFQQKPGQPPKLLIYWASTLAYGVPSRFSGSGSGTDFTLTISSLQPEDAATYYCAGGYGGGRYAFGQGTKVEIKRTVAAPSVFIFPPSDEQLKSGTASVVCLLNNFYPREAKVQWKVDNALQSGNSQESVTEQDSKDSTYSLSSTLTLSKADYEKHKVYACEVTHQGLSSPVTKSFNRGEC"
3000 nM,3300 nM,–,1100 nM,9700 nM,100 nM,300 nM,140000 nM,"M103205H795-MY228/M103202L889-SK1 (antibody, human IgG1, kappa) heavy: QVTLKESGPVLVKPTETLTLTCTVSGIDLSHDDISWVRQAPGKGLEWVGIISYAGSTYYASWAKGRLTISKDTSKNQVVLTMTNMDPVDTATYYCARGVPAYSHGGDLWGQGTLVTVSSASTKGPSVFPLAPSSKSTSGGTAALGCLVKDYFPEPVTVSWNSGALTSGVHTFPAVLQSSGLYSLSSVVTVPSSSLGTQTYICNVNHKPSNTKVDKKVEPKSCDKTHTCPPCPAPELLGYPSVFLFPPKPKDTLMISRTPEVTCVVVDVSDEDPEVKFNWYVDGVEVHNAKTKPREELYNSTYRVVSVLTVLHQDWLNGKEYKCKVSNKALPKPIEKTISKAKGQPREPQVYTLPPSREEMTKNQVSLTCLVKGFYPSDIAVEWESNGQPENNYKTTPPVLDSDGSFFLYSKLTVDKSRWQQGNVFSCSVMHEALHNHYTQKSLSLSP light: DIVMTQSPATLSLSPGERATLSCTSSQSVYHANWLSWFQQKPGQPPKLLIYWASTLAYGVPSRFSGSGSGTDFTLTISSLQPEDAATYYCAGGYGGGRYAFGQGTKVEIKRTVAAPSVFIFPPSDEQLKSGTASVVCLLNNFYPREAKVQWKVDNALQSGNSQESVTEQDSKDSTYSLSSTLTLSKADYEKHKVYACEVTHQGLSSPVTKSFNRGEC"
